Assay: label from the status in PepcDB records

Sequence	protein production
MLVPLPVREIMRTPVKTISPSAPVIEAAQRLRDEDIGSLVVEDDGSCVGIITESDIVAVTAAEGDTRALSVGDVMAETLVTVAPDADMQAAVDRLQTNNIKKLPVVEDGSLVGIVTTTDLSDYIPHLSRAVRMSNDQSQQKRFTRPDTLYENEDWTFESYGTADGIDVGDHVEFSKTISKADVEAFAEASGDTNRLHLDATFADGTRFGRRIVHGTLVSGIISAALARLPGLTIYLSQELSYQGPVDIDEEVTARCEVVERIQDNRFRLATAVDDSEGNCVIEGDAVVISDPIPDTA	failed
MLVRNICKFTQVMGRFRVVVNPRDYCHLAPLKRSRYHQRSEFGCRPLCSNAAGYEVSWAAPPASGSSGGMFWAFSAAFTLNLFGGADEKEETPEEKLIKTIKRSILCIQREQYDKAEQMLHLALRMAQDIQSKDGITYVFDLMANLAMEREQFKKAEKIFTDVMKRLFAEGHTEESPKILHISSKIAHMSQLQGDLEKSFQGFTWTLQQLAKLLEKMPDDKDILELYGLTKNWFGQLLMKQGKYLEAKNLFKEAFDTLINVYGAVNDASVTILNNISVAYVNLEKYAEARETLLEAMELTKELKDATQEGILQANLGLVYLREGLMSQAENACRLAWKLGKQHQNPDAVEQAEYCLNEIKTTLNGEKRQ	failed
MLVVAVVFPVLAFIFLGGVVFYTRKQNKPKNKRAASVEVDENNEDGVKVNNSELKKLTKIKKIKGSKIYLKNGAIRVNLGISSPDFELLTDEEQTSFEDCLMMSALSLNFPVQFHTTLKKIEIKEPAELVEKTMNSSDSLISDNLRDYCSQLYSSYKKLEHEKGIFVRKSFCTVGAYLPDRDEKKVLNELQSRIDNIAGGLSRARMKINLLNSESTAQILADLFNRGKNIKIETLEKDGAFDLYSEGVGQVVEVQEG	failed
MLYFEDLRPGQLFLSAEHTLSEQEIIAFARQFDPQPFHTDPEAARQTFFNGLAASGWHTSSLSMRLVAESELGRAANGLIGMQIDKMRWPQPSRPGDTLQVEVEVLDKRRSSSQPGFGVVKVSWTTRNQRGETAMQLECAIWLQCRSKAEAAAPELAGAK	failed
MLYHLVMLEPEGEGAMDRIMEAMAILDGLAPELPGLTEFRHGPNRDFEQKSERYPYGFLCTFTDKAALDAYAVHPTHQRAGGMLVASCRNGADGILVVDLEV	not failed
MLYLFPLLAVVIWAGNAIVNKLSFGIIAPEAIAFYRWFFAMLILTPFMLKSVWKNRRRIIPLLPKLATLASLGMVLNQSLAYFAAATTTATNMALINSLVPMISLFLAVPLLKQRLSPLVLGGSVISLLGLVFMLSHGDIANLAIGVTEGDLLLLISAFVYALYGVLLKRWQLPISTWESVYIQGIIAVLMLTPLLFSAPSIAISSQATPLIVYAAFGASLIAPWAWINGINKLGAERTSIFFNLMPILAAIFAAIILNETLAIYHYLGGTMVILGVMLVQIKPKPKTTTIITCAE	failed
MLYNSYMLLTYQFKLNPTSEQVVILETWGELLRRHWNYALGERLDWLRRTRSLLDRCSLVSEPIGGIPDKPDYYTQASDLQQTKDLFPDYKNIYADCQQQNLMRLDKAWKRWLIPDKKGNRGGKPRFKKRGDISSFTFPRVNSPKAGAHLTGNILKLSKIGEIEVILHRPIPNGSEIKQATILSKSDGWYVSFSLEDKTVPELLPIDEIKTATGIDVGLEKFLTTAHGQSIEVPQYSRKTQSKLARQQRKLARKIHGSKNYQKQASRVARIHLHVARQRKEFHYQVAHWLVKSYDLIVFENLNIRGLARTRLAKSILDVAWGAFLQIMQAVAVRRGKHTRGVDPRGTSINCSGCGQRVEKTLAVRVHNCSCGLVIDRDWNSAINLLNYGSVGLPIPGCGGLGVSQPVKQQVSYVNLRCSRYTACS	failed
MLYPNERKSSVHAIPYQDQLKQVQSAVDEFQKANGGLLPIQTKDMSTPLYQKYPIDFNRLAPRYIAEPPSTAFESGGDYQYVLVDVENDPTVKLIDLKMAEKIRDVKLRIQMYRQEHQYPPYKDVLSRDLFTLDEKKLGDGSSLTVTSPISGNSLPLMIDGDGEIYADYRTELASCLKKSKKTFKPGTEIQDMIWHETPFVPAFSVKYTVNDKQEPVFLENDMKKELEHHHHHH	not failed
MLYVVGIGPGNEEYFTKEAENALNSVDLIVCYTGYKKYIERFDTEIYVSGMTKEVERVEYALKEAENKNVALVSNGDATIYGLASLAYELNEKNLHNVTINVVSGL	failed
MMAPNQFSSGDVIADRRADYARMLAESGDYPAAAELMEQALELAPRWTAGWFRFGEYHEKAGETAKAVAAYEKVAELDAEGLFAAELKLAVLGAAETPEQPPSRYVEGLFDDYADRFETSLVEKLDYSVPQKLAELIGKAATGDAFDTIVDIGCGTGLLGIEIRSLAKRLEGFDISQNMLAKADEKSLYDHLGQADLSLDAEASGLFTPVLTQHRADLVAAADVMMYLGSLETVMPLVSALLKPSGFFAFSVEDAGDEQGFVLRESLRYAHSKSYVIDLLERSGFSPMEIRKTTIRKDAGKPLSGILFLARAKA	failed
MMARVEKLRELMKENNLQGFLVTSPYNLRYLTNFTGTTGLAMITLDKAFFVTDFRYTEQAAEQATGFTIVKNTGHIFDEVADLAERLQLDNLAFEETQVSFADYSLLEEILPCELVPVMGLIEELR	not failed
MMDCDHLLRLGMTAKKILENGKGILAADETPKTLGRRFEKLGITNTEENRRKFREILFSTKGIERYIGGVILNQETFEQTSGSGVPLTELLKKKGIEIGIKLDKGLIDYKEKEKISVGLEDLDLRCKSSAFKDATFAKWRSLFYFYDGIPSEDCINENCSILAKYAIICQKNGLVPIVEPEVFLEGDYSMKRSYEVTRQILSTLMKYLNYELVYIPGVLIKASYVTSGQLSNEKYTPKKVATFTLRALLSTIPCGIPGIVFLSGGHGSEDAIGFLNAINMERGCRTWSLSFSFARALTDGVLETWRGDDSNIEEAQKILLETSFKACRGAEGKLWDQE	not failed
MMDIVEIIIGFIALLMTARIFLERSRARKLLYLCCLSFCISALIALYVDSPMGGIVAITYFICSTISSNAIAYTIEQTKHIE	failed
MMDYLITQNGGMVFAVLAMATATIFSGIGSAKGVGMTGEAAAALTTSQPEKFGQALILQLLPGTQGLYGFVIAFLIFINLGSDMSVVQGLNFLGASLPIAFTGLFSGIAQGKVAAAGIQILAKKPEHATKGIIFAAMVETYAILGFVISFLLVLNA	not failed
MMFLHGSRQAVIAALVGLVITVTAFSYLRYQENQVVHDALEAETYNLQRDIRQSLVSHLFVAELLAREWERSDLSIEERWKENADIVTLYYQNVQGITWLNDELDIELIYPQNEQPELLGTPFAKTPLLEKLKASEGNRHAMMGPAGNLGRISSDIAIFVRVEQQDQTHGFLGFVISLQSLFNNVVRSNISEGFQLSVRSDNDILYQFAGDTSLREEWSHFHSLQLVGNSWELSVWPTAGHLEQLRGGISLAALIAGLLVTSMLTFVLYILGQSRFKAQQLADSNIELYSEIDERERIEKQMAYLAEHDSLTGLVNRNALKRILGEWLETESPHKKAALLFIDLDRFKEVNDALGHTVGDELLRRVARRITKLAPKGSVLARAGGDEFLLAIAKPDSRESIIKLSEQMLQALDTHFFVDVYELFISASIGVTFADDADFNAEYFIRNADTALYQAKEHGRNTYKVYDKAIHRDLTKKLELVKRLRHAVSKQQLTVYYQPKVELGSRRISGLEALVRWVDDDGSIIPPDEFIPLAEDTGLIIPISEYVMEEAFLQLKQWHELGFDELSIAINISGKQLHLADLVDDIMERVNEAQIPPNKVELELTEQVFIENIQSHTRFMHSVREQGMSLAIDDFGVGYSSLSYLKNFPVTSLKIDRSFVRDLPHNEDDATITQTIISLARNLNLQLVAEGIETEEQVEFLLQRECSTGQGFLFSKPVPARQITELLQQYKGLIPIQIA	failed
MMGSVLPAEALVLKTGLKAPGLALAEVITSDILHSFLYGRWRNVLGEQLFEDKSHHASPKTAFTAEVLAQSFSGEVQKLSSLVLPAEVIIAQSSIPGEGLGIFSKTWIKAGTEMGPFTGRVIAPEHVDICKNNNLMWEVFNEDGTVRYFIDASQEDHRSWMTYIKCARNEQEQNLEVVQIGTSIFYKAIEMIPPDQELLVWYGNSHNTFLGIPGVPGLEEDQKKNKHEDFHPADSAAGPAGRMRCVICHRGFNSRSNLRSHMRIHTLDKPFVCRFCNRRFSQSSTLRNHVRLHTGERPYKCQVCQSAYSQLAGLRAHQKSARHRPPSTALQAHSPALPAPHAHAPALAAAAAAAAAAAAHHLPAMVL	failed
MMHISVGATEMSWLSSLKSVFSPSQEVKEDDVQTILQSYSLENSSFVLKDRITQINVEGRILQLTIKTFPEEADHLQQIHDELADALQKAGIQELNLHVIQQKTAPRTEPKSSSSTTSSSSHLPPVVDASASPTPDPNNPPIQKKAPIQSEVPAHPRIKNVILVSSGKGGVGKSTTTVNLALALQKQGLKVGVLDADIYGPSIPTMLGNAGRTPKIENENFVPLDAYGLAVLSIGHLTGDNNTPVAWRGPKATGALMQLFNQTLWPDLDVLVIDMPPGTGDIQLTLAQRIPVTGALIVTTPQNVALLDASKGIELFNRVGIPVVGVIENMSTHICSNCGFEEQIFGVGGGDKLSEQYDIPLLGRLPLNAQIRENADKGQPSVIAQDTAAESYQMIAQALWTRVEQLPQRARDDKRIFLEHHHHHH	failed
MMHYGVLALTFLSVNLDFFLMLVFLLKKYRLWQVLLGYLLGNLILLTASFFVGKALTLFLPEWLLGFLGVLPIWLAFHDDDDDTADRAGGSPVINVLVTYLAVCAGCNLSIFLPVLVGESMVHFVMTLGFIGILTMLVVLIINQVAEIKAVQKQIAAHGERLMKICYVVIGLYVFWDSGLISHLIAFL	failed
MMINRINLTDIRSFVLIARLGNFTKAAETLDVSRSHVSRQISSLEKQMGVTLLIRTTRTLRLTEAGKHFYHQCEQALHTIDQALLSAVDDVEKVQGEIKINCVGGYLGEVFLADIVNTFMQQYPDVSISLDFSSNRVDLIEEEFDIAFRMGSLEDSGFVAKKLLDIEMGTLASPKYLQQYGRPSHPKELQQHHCLTGSVRKWHFQSLVNKEHYDVSIKGNLQCKNGRVLVAGAIAGNGIIRVPLIYCQQELDDKKLVQVFEEWGIPTVDFSAIYHRDRYQPKRIRTFIDFVKQYSDSLFT	failed
MMKEFTPAPDSASIVSVTDRVKPVALGMGVTSVHFLGDRAAFVGGEENVAFVDSQGEITTVAVHGGGILSTASDGKRLVMGGDDGKVVSLDAKGEVTLLATDPKRRWIDAVALHADGAFAWSAGKTATVKSGKTEEKSLEVPSTVGGLAFAPKGLRLAIAHYNGATLWFPNMAASAEFLPWAGSHHAVTFSPDNKFLVTAMHEPALHGWRLADNRHMRMTGYPGRVRSMSWSAGGKALATSGADTVILWPFGSKDGPMGKEPAMLAPLQARVSVVACHPKNDILAAGYSDGTVLMVRLEDGAEILVRRNGTPPVAALAWNAKGTLLAFADENGDGGLLEL	failed
MMKEMTVQQMTEKVLNKESLFILDVRNESDFRDWKIEGENFAYLNVPYFELVHGVDSIVDRLPKDQDIVVVCAKGGSAAFVAEQLAEAGFDNVYTLAGGMQAWSEHLHQAKVYEDDQLKIYQFIRVGKGCLSYMVLSGDEALVVDPLRFIDVYEQVAQQEGVTITHIVDSHLHADHLSGGKALAERTGAAYYLMKSEGAVFDFEPLEQHETIDFENVHLEVLAVKTPGHTPGSVSFFVNGKWLFSGDTIFVGGLGRPDLGGKVAEWAEDLYHTVYEKVAAMADDVIVLPAHYANLDEEINAEGYVGDTLGRIRARNEMMQNKAKDEFIDLVIQGAKTETPPNFEDIVAINRGLKTVDIETQRELEIGPLEHHHHHH	not failed

Reference: a protein production outcome set (Wang et al. 2014)
